According to paper PMC7319964, “The MiDAC histone deacetylase complex is essential for embryonic development and has a unique multivalent structure” (Nature Communications, 2020):

Target: the molecule itself
Assay: cryo-EM structure; complex of HDAC1, MIDEAS ELM2-SANT and DNTTIP1 lacking the DNA-binding domain; 50 µM SAHA and 50 µM InsP6, glutaraldehyde cross-linked on ice; dimer map ~4 Å (C2) and tetramer map 4.5 Å (D2) from the same grids

B1: ELM2-SANT domain from MIDEAS (domain or fragment, UniProt Q6PJG2 717-887, looked up)
chain: VSIEPRINVGSRFQAEIPLMRDRALAAADPHKADLVWQPWEDLESSREKQRQVEDLLTAACSSIFPGAGTNQELALHCLHESRGDILETLNKLLLKKPLRPHNHPLATYHYTGSDQWKMAERKLFNKGIAIYKKDFFLVQKLIQTKTVAQCVEFYYTYKKQVKIGRNGTLT
notes: MIDEAS (ELMSAN1, c14orf43) ELM2-SANT domain; The tag is followed by a TEV protease cleavage site; TEV released the complex from the anti-FLAG resin; also called MIDEAS co-repressor protein; not shown: 10xHis, N-terminal, cleaved; 3xFLAG, N-terminal, cleaved
B1: binds.
